Tested on: peptide library, one residue held at a place counted from the Y acceptor
Assay: relative phosphorylation of the sub-library (ratio to the mean residue at this position); higher = residue favoured
Outline: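 Biotinylated Tyr-centred peptide library mixtures, each fixing one residue at one position from −5 to +5, were incubated with purified recombinant kinases in 384-well plates for 90 min with 50 μM ATP plus γ-32P-ATP. Streptavidin membranes captured the peptides, which were rinsed and quantified by phosphorimaging and ImageQuant. At each position, intensities were divided by the sum of the 18 randomized residues (16 for the Ser/Thr-free library) and multiplied by that number. Each value is phosphorylation relative to the mean randomized residue.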

Sequence of TEK, construct: aa771-end, human (Q02763 771-1124, looked up): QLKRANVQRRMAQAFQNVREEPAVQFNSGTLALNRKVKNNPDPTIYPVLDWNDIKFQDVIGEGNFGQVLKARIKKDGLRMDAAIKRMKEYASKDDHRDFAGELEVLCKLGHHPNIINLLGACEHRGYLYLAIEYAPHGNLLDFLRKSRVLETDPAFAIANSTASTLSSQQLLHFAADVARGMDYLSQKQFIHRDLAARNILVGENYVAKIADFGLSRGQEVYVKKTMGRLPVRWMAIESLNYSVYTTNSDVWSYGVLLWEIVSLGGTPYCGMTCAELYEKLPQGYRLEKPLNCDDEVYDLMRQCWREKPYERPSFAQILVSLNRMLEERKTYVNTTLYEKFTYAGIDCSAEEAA

TEK, construct: aa771-end, human (from UniProt Q02763)
relative phosphorylation (A fixed, at +1): 0.824 | relative phosphorylation (A fixed, at +2): 0.564 | relative phosphorylation (A fixed, at +3): 0.495 | relative phosphorylation (A fixed, at +4): 0.84 | relative phosphorylation (A fixed, at +5): 1.16 | relative phosphorylation (A fixed, at -1): 0.673 | relative phosphorylation (A fixed, at -2): 0.88 | relative phosphorylation (A fixed, at -3): 0.762 | relative phosphorylation (A fixed, at -4): 1.02 | relative phosphorylation (A fixed, at -5): 0.755 | relative phosphorylation (D fixed, at +1): 0.525 | relative phosphorylation (D fixed, at +2): 0.606 | relative phosphorylation (D fixed, at +3): 0.254 | relative phosphorylation (D fixed, at +4): 0.752 | relative phosphorylation (D fixed, at +5): 0.411 | relative phosphorylation (D fixed, at -1): 0.863 | relative phosphorylation (D fixed, at -2): 0.972 | relative phosphorylation (D fixed, at -3): 0.981 | relative phosphorylation (D fixed, at -4): 0.932 | relative phosphorylation (D fixed, at -5): 0.844 | relative phosphorylation (E fixed, at +1): 1.78 | relative phosphorylation (E fixed, at +2): 1.11 | relative phosphorylation (E fixed, at +3): 0.233 | relative phosphorylation (E fixed, at +4): 0.854 | relative phosphorylation (E fixed, at +5): 0.367 | relative phosphorylation (E fixed, at -1): 1.07 | relative phosphorylation (E fixed, at -2): 1.19 | relative phosphorylation (E fixed, at -3): 1.06 | relative phosphorylation (E fixed, at -4): 0.927 | relative phosphorylation (E fixed, at -5): 0.772 | relative phosphorylation (F fixed, at +1): 0.935 | relative phosphorylation (F fixed, at +2): 1.43 | relative phosphorylation (F fixed, at +3): 1.97 | relative phosphorylation (F fixed, at +4): 1.16 | relative phosphorylation (F fixed, at +5): 0.471 | relative phosphorylation (F fixed, at -1): 1.19 | relative phosphorylation (F fixed, at -2): 0.833 | relative phosphorylation (F fixed, at -3): 1.21 | relative phosphorylation (F fixed, at -4): 0.976 | relative phosphorylation (F fixed, at -5): 1.18 | relative phosphorylation (G fixed, at +1): 0.429 | relative phosphorylation (G fixed, at +2): 0.332 | relative phosphorylation (G fixed, at +3): 0.395 | relative phosphorylation (G fixed, at +4): 1.05 | relative phosphorylation (G fixed, at +5): 1.68 | relative phosphorylation (G fixed, at -1): 0.512 | relative phosphorylation (G fixed, at -2): 1.11 | relative phosphorylation (G fixed, at -3): 0.972 | relative phosphorylation (G fixed, at -4): 1.3 | relative phosphorylation (G fixed, at -5): 1.16 | relative phosphorylation (H fixed, at +1): 1.12 | relative phosphorylation (H fixed, at +2): 0.955 | relative phosphorylation (H fixed, at +3): 1.47 | relative phosphorylation (H fixed, at +4): 1.06 | relative phosphorylation (H fixed, at +5): 0.691 | relative phosphorylation (H fixed, at -1): 1.2 | relative phosphorylation (H fixed, at -2): 1.09 | relative phosphorylation (H fixed, at -3): 1.08 | relative phosphorylation (H fixed, at -4): 0.997 | relative phosphorylation (H fixed, at -5): 1.03 | relative phosphorylation (I fixed, at +1): 1.37 | relative phosphorylation (I fixed, at +2): 1.07 | relative phosphorylation (I fixed, at +3): 1.89 | relative phosphorylation (I fixed, at +4): 0.823 | relative phosphorylation (I fixed, at +5): 0.478 | relative phosphorylation (I fixed, at -1): 1.42 | relative phosphorylation (I fixed, at -2): 0.936 | relative phosphorylation (I fixed, at -3): 0.794 | relative phosphorylation (I fixed, at -4): 0.792 | relative phosphorylation (I fixed, at -5): 0.969 | relative phosphorylation (K fixed, at +1): 0.577 | relative phosphorylation (K fixed, at +2): 0.6 | relative phosphorylation (K fixed, at +3): 0.665 | relative phosphorylation (K fixed, at +4): 0.986 | relative phosphorylation (K fixed, at +5): 0.996 | relative phosphorylation (K fixed, at -1): 0.594 | relative phosphorylation (K fixed, at -2): 0.83 | relative phosphorylation (K fixed, at -3): 0.828 | relative phosphorylation (K fixed, at -4): 1.26 | relative phosphorylation (K fixed, at -5): 1.26 | relative phosphorylation (L fixed, at +1): 1.06 | relative phosphorylation (L fixed, at +2): 1.67 | relative phosphorylation (L fixed, at +3): 1.49 | relative phosphorylation (L fixed, at +4): 1.11 | relative phosphorylation (L fixed, at +5): 0.509 | relative phosphorylation (L fixed, at -1): 1.92 | relative phosphorylation (L fixed, at -2): 0.94 | relative phosphorylation (L fixed, at -3): 0.854 | relative phosphorylation (L fixed, at -4): 0.908 | relative phosphorylation (L fixed, at -5): 0.898 | relative phosphorylation (M fixed, at +1): 1.16 | relative phosphorylation (M fixed, at +2): 1.4 | relative phosphorylation (M fixed, at +3): 1.18 | relative phosphorylation (M fixed, at +4): 1.42 | relative phosphorylation (M fixed, at +5): 0.608 | relative phosphorylation (M fixed, at -1): 1.5 | relative phosphorylation (M fixed, at -2): 0.868 | relative phosphorylation (M fixed, at -3): 0.988 | relative phosphorylation (M fixed, at -4): 0.839 | relative phosphorylation (M fixed, at -5): 0.948 | relative phosphorylation (N fixed, at +1): 0.54 | relative phosphorylation (N fixed, at +2): 1.01 | relative phosphorylation (N fixed, at +3): 0.429 | relative phosphorylation (N fixed, at +4): 0.846 | relative phosphorylation (N fixed, at +5): 0.844 | relative phosphorylation (N fixed, at -1): 1.03 | relative phosphorylation (N fixed, at -2): 1.15 | relative phosphorylation (N fixed, at -3): 1.27 | relative phosphorylation (N fixed, at -4): 1.09 | relative phosphorylation (N fixed, at -5): 1.14 | relative phosphorylation (P fixed, at +1): 1.31 | relative phosphorylation (P fixed, at +2): 0.606 | relative phosphorylation (P fixed, at +3): 0.505 | relative phosphorylation (P fixed, at +4): 1.43 | relative phosphorylation (P fixed, at +5): 3.89 | relative phosphorylation (P fixed, at -1): 0.878 | relative phosphorylation (P fixed, at -2): 0.913 | relative phosphorylation (P fixed, at -3): 1 | relative phosphorylation (P fixed, at -4): 1.07 | relative phosphorylation (P fixed, at -5): 0.967 | relative phosphorylation (Q fixed, at +1): 1.15 | relative phosphorylation (Q fixed, at +2): 0.913 | relative phosphorylation (Q fixed, at +3): 0.581 | relative phosphorylation (Q fixed, at +4): 1.31 | relative phosphorylation (Q fixed, at +5): 0.866 | relative phosphorylation (Q fixed, at -1): 0.891 | relative phosphorylation (Q fixed, at -2): 1.25 | relative phosphorylation (Q fixed, at -3): 1.01 | relative phosphorylation (Q fixed, at -4): 1.16 | relative phosphorylation (Q fixed, at -5): 1.03 | relative phosphorylation (R fixed, at +1): 0.705 | relative phosphorylation (R fixed, at +2): 0.717 | relative phosphorylation (R fixed, at +3): 0.658 | relative phosphorylation (R fixed, at +4): 1.05 | relative phosphorylation (R fixed, at +5): 0.944 | relative phosphorylation (R fixed, at -1): 0.56 | relative phosphorylation (R fixed, at -2): 0.935 | relative phosphorylation (R fixed, at -3): 0.936 | relative phosphorylation (R fixed, at -4): 1.22 | relative phosphorylation (R fixed, at -5): 1.37 | relative phosphorylation (S fixed, at +1): 0.816 | relative phosphorylation (S fixed, at +2): 0.725 | relative phosphorylation (S fixed, at +3): 0.445 | relative phosphorylation (S fixed, at +4): 0.795 | relative phosphorylation (S fixed, at +5): 1.97 | relative phosphorylation (S fixed, at -1): 0.756 | relative phosphorylation (S fixed, at -2): 1.06 | relative phosphorylation (S fixed, at -3): 1.11 | relative phosphorylation (S fixed, at -4): 0.917 | relative phosphorylation (S fixed, at -5): 0.963 | relative phosphorylation (T fixed, at +1): 0.951 | relative phosphorylation (T fixed, at +2): 0.873 | relative phosphorylation (T fixed, at +3): 0.746 | relative phosphorylation (T fixed, at +4): 0.734 | relative phosphorylation (T fixed, at +5): 1.03 | relative phosphorylation (T fixed, at -1): 0.921 | relative phosphorylation (T fixed, at -2): 1.08 | relative phosphorylation (T fixed, at -3): 1.06 | relative phosphorylation (T fixed, at -4): 0.789 | relative phosphorylation (T fixed, at -5): 0.955 | relative phosphorylation (V fixed, at +1): 1.89 | relative phosphorylation (V fixed, at +2): 1.03 | relative phosphorylation (V fixed, at +3): 1.81 | relative phosphorylation (V fixed, at +4): 0.871 | relative phosphorylation (V fixed, at +5): 0.498 | relative phosphorylation (V fixed, at -1): 1.22 | relative phosphorylation (V fixed, at -2): 0.926 | relative phosphorylation (V fixed, at -3): 0.941 | relative phosphorylation (V fixed, at -4): 0.787 | relative phosphorylation (V fixed, at -5): 0.852 | relative phosphorylation (W fixed, at +1): 0.848 | relative phosphorylation (W fixed, at +2): 2.39 | relative phosphorylation (W fixed, at +3): 2.79 | relative phosphorylation (W fixed, at +4): 0.901 | relative phosphorylation (W fixed, at +5): 0.587 | relative phosphorylation (W fixed, at -1): 0.812 | relative phosphorylation (W fixed, at -2): 1.02 | relative phosphorylation (W fixed, at -3): 1.15 | relative phosphorylation (W fixed, at -4): 1.03 | relative phosphorylation (W fixed, at -5): 0.901 | relative phosphorylation (pThr fixed, at +1): 0.806 | relative phosphorylation (pThr fixed, at +2): 1.6 | relative phosphorylation (pThr fixed, at +3): 0.252 | relative phosphorylation (pThr fixed, at +4): 0.346 | relative phosphorylation (pThr fixed, at +5): 0.313 | relative phosphorylation (pThr fixed, at -1): 1.22 | relative phosphorylation (pThr fixed, at -2): 0.849 | relative phosphorylation (pThr fixed, at -3): 0.769 | relative phosphorylation (pThr fixed, at -4): 0.71 | relative phosphorylation (pThr fixed, at -5): 0.686 | relative phosphorylation (pTyr fixed, at +1): 2.39 | relative phosphorylation (pTyr fixed, at +2): 1.81 | relative phosphorylation (pTyr fixed, at +3): 0.341 | relative phosphorylation (pTyr fixed, at +4): 0.473 | relative phosphorylation (pTyr fixed, at +5): 0.276 | relative phosphorylation (pTyr fixed, at -1): 1.97 | relative phosphorylation (pTyr fixed, at -2): 0.786 | relative phosphorylation (pTyr fixed, at -3): 1.34 | relative phosphorylation (pTyr fixed, at -4): 0.874 | relative phosphorylation (pTyr fixed, at -5): 0.643

From the supplement of paper PMC11136658
